# Target: the molecule itself
# Assay: non-reducing SDS-PAGE and immunoblot (dimer/monomer detection); A549 cells untreated or treated with GSNO for 24 h; 100 mM N-ethyl maleimide for 20 min at 37 °C to preserve the Prdx2 redox state; nonreducing lysis buffer (100 mM Tris-HCl pH 6.8, 10% glycerol, 2% SDS) with 100 mM NEM; immunoblot for Prdx2
protein,measurement,value
"Peroxiredoxin-2 (enzyme, human (endogenous in A549), UniProt P32119 1-198, looked up, Peroxiredoxin-2 (Prdx2), endogenous in human A549 lung cancer cells; three cysteines Cys51, Cys70, Cys172; The dimer seen on the non-reducing gel is the disulfide-linked (Cys51-Cys172) form; also called Prdx2; source: endogenous, A549 cells, in lysate) MASGNARIGKPAPDFKATAVVDGAFKEVKLSDYKGKYVVLFFYPLDFTFVCPTEIIAFSNRAEDFRKLGCEVLGVSVDSQFTHLAWINTPRKEGGLGPLNIPLLADVTRRLSEDYGVLKTDEGIAYRGLFIIDGKGVLRQITVNDLPVGRSVDEALRLVQAFQYTDEHGEVCPAGWKPGSDTIKPNVDDSKEYFSKHN",stoichiometry N,2
